# Data reported in publication doi:10.1101/2022.10.08.511438.
# How the values were obtained:
# [1] = molecular target: dihydrolipoyl succinyltransferase (E2o), core of the oxoglutarate dehydrogenase complex, Chaetomium thermophilum (C. thermophilum (endogenous in mycelium lysate)); assay: cryo-EM structure
# [2] = molecular target: dihydrolipoyl succinyltransferase (E2o), core of the oxoglutarate dehydrogenase complex, Chaetomium thermophilum (C. thermophilum (endogenous in mycelium lysate)); assay: label-free MS quantitation
substance,measurement,setting,value
"dihydrolipoyl succinyltransferase (E2o), core of the oxoglutarate dehydrogenase complex, Chaetomium thermophilum (enzyme)",stoichiometry N,[1],24 subunits
"dihydrolipoyl dehydrogenase (E3), Chaetomium thermophilum (enzyme)",stoichiometry N (E3 dimers relative to 24 E2o subunits),[2],4
"oxoglutarate dehydrogenase (E1o) of the oxoglutarate dehydrogenase complex (OGDHc), Chaetomium thermophilum (enzyme)",stoichiometry N (E1o dimers around the 24-mer E2o core),[2],9
same,stoichiometry N (E1o dimers relative to 24 E2o subunits),[2],< 10
